This is an account of results in the DeepSol protein solubility set.

The data set is described as follows: soluble on expression in E. coli; label from the status in PepcDB or PDB records.
Consider “MSLLNSPLAERIRPQNLSEYLSQNHLVGERGTLRQHILNGTIPSLILWGPPGTGKTTLANIIAQESKRPFYTLSAINSGVKDVREVIDKAKSAGGLFTAKNPILFIDEIHRFSKSQQDSLLAAVEKGWVTLIGATTENPSFEVIPALLSRCQVYVLDAFAKADLEQLLHRAMKIDEVLSIKDITIQETEALLRISGGDARKLLNIFELVINSQPSGPIVITNELVFEQVQSNPARYDKTGEQHYDIISAFIKSIRGSDPNAAVYWLARMIEGGEDLKFIARRMLILASEDIGNANPTALIMANNTFQAVSTIGYPESRIILSQCAIYLATSIKSNASYLAIGQAQQIVKQTGDLPVPLGLRNAPTKLMKELGYGQEYKYAHDHPGNFAQFDFLPTEISGTKIFNPGNNPREQAQREFLEKRWKEHYDYKPSKGEGHHHHHH”, for which the “soluble on expression in E. coli” value is reported as “soluble”. For “MGHHHHHHSHLSPEPPVYSLQDFDTLATVGTGTFGRVHLVKEKTAKHFFALKVMSIPDVIRLKQEQHVHNEKSVLKEVSHPFLIRLFWTWHDERFLYMLMEYVPGGELFSYLRNRGRFSSTTGLFYSAEIICAIEYLHSKEIVYRDLKPENILLDRDGHIKLTDFGFAKKLVDRTWTLCGTPEYLAPEVIQSKGHGRAVDWWALGILIFEMLSGFPPFFDDNPFGIYQKILAGKIDFPRHLDFHVKDLIKKLLVVDRTRRLGNMKNGANDVKHHRWFRSVDWEAVPQRKLKPPIVPKIAGDGDTSNFET” the value was “not soluble”; for “MGSDKIHHHHHHMELYRDPSQPIEVRVRDLLSRMTLEEKVAQLGSVWGYELIDERGKFSREKAKELLKNGIGQITRPGGSTNLEPQEAAELVNEIQRFLVEETRLGIPAMIHEECLTGYMGLGGTNFPQAIAMASTWDPDLIEKMTTAVREDMRKIGAHQGLAPVLDVARDPRWGRTEETFGESPYLVARMGVSYVKGLQGEDIKKGVVATVKHFAGYSASEGGKNWAPTNIPEREFKEVFLFPFEAAVKEANVLSVMNSYSEIDGVPCAANRKLLTDILRKDWGFEGIVVSDYFAVKVLEDYHRIARDKSEAARLALEAGIDVELPKTECYQYLKDLVEKGIISEALIDEAVTRVLRLKFMLGLFENPYVEVEKAKIESHRDIALEIARKSIILLKNDGILPLQKNKKVALIGPNAGEVRNLLGDYMYLAHIRALLDNIDDVFGNPQIPRENYERLKKSIEEHMKSIPSVLDAFKEEGIEFEYAKGCEVTGEDRSGFEEAIEIAKKSDVAIVVVGDKSGLTLDCTTGESRDMANLKLPGVQEELVLEVAKTGKPVVLVLITGRPYSLKNVVDKVNAILQVWLPGEAGGRAIVDIIYGKVNPSGKLPISFPRSAGQIPVFHYVKPSGGRSHWHGDYVDESTKPLFPFGHGLSYTKFEYSNLRIEPKEVPPAGEVVIKVDVENIGDRDGDEVVQLYIGREFASVTRPVKELKGFKRVSLKAKEKKTVVFRLHMDVLAYYNRDMKLVVEPGEFKVMVGSSSEDIRLTGSFSVVGEKREVVGMRKFFTEACEE”, “not soluble”.

For “MAHHHHHHMGTLEAQTQGPGSMLYIIGLGLYDEKDITVRGLEAVKSCDLVFLEHYTAILQCDVAKLEEFYGKKVIIGDRDLVETEADQILEPAKTKNVALLVVGDVYGATTHSDIFVRCQKMGIEVKVIHNASIMNAIGCSGLQLYRFGQTVSVCFWSEHWRPSSYYPKIKINRDNNMHTLVLLDIKVKERSEESIIKGRDIFEPPRYMTINQCIEQLLEVEKEQHLGVYDEDTMVVGMARVACADQKIVYGKMKDLLHYDFGAPMHCLLIPAPQVDDPELDQLEYFKYKPE”, the “soluble on expression in E. coli” value is reported as “soluble”. “MRMKKLTTLISAALLSTSVSFVAQAQDTVAIVLSTLNNPFFVTMKDGAEAKAKELGYNLIVLDSQNDPSKELSNVEDLTVRGVKAILINPTDSDAVSNAIRIANRSKIPVLTLDRGASRGEVVSHIASDNVVGGEMAGHFIEAKIGSDAKVIQLEGIAGTSAARERGEGFMNAVKGSKMQLLASQPADFDRTKGLNVMENLLAANPDVQAVFAQNDEMALGALRAIQASGKSVMIVGFDGTDDGIAAVERGQLAATVAQQPDMIGAIGIETADKMLKGEKVEAYIPVALKVIAK”: the “soluble on expression in E. coli” value was “not soluble”. For “MRVAFCLYKYFPFGGLQRDFMRIAQTVAARGHQVRVYTQSWEGECPDNFELIRVPVKSRTNHGRNAEYYAWVQHHLRDHPVDRVVGFNKMPGLDVYYAADVCYAEKVAQEKGFFYRLTSRYRHYAAFERATFEHGKPTQLLMLTNKQIADFQKHYQTEAERFHILPPGIYPDRKYSQQIPNSRQIYRQKNGISEQQKLLLQVGSDFTRKGVDRSIEALASLPESLRQNTVLYVVGQDKPKKFAALAERSGVGTNVHFFSGRNDIAELMAAADLLLHPAYQEAAGIVLLEAITAGLPVLTTAVCGYAHYIVDANCGEAMTEPFRQDALNEVLLKALTQPSLRNAWAENARYYADTQDLYSLPEKAADIITGDLDG” the value was “not soluble”; for “SMVQSSGPMDVTSLTEELKKLAKQGWYWGPITRWEAEGKLANVPDGSFLVRDSSDDRYLLSLSFRSHGKTLHTRIEHSNGRFSFYEQPDVEGHTSIVDLIEHSIGDSENGAFCYSRSRLPGSATYPVRLTNPVSRFMQVRS”, “soluble”; for “MQEGVKVVVDSRELRSEVVKRLKLLGVKLEVKTLDVGDYIISEDVAIERKSANDLIQSIIDGGLFDQVKRLKEAYSRPIMIVEGSLYGIRNVHPNAIRGAIAAVTVDFGVPIIFSSTPEETAQYIFLIAKREQEEREKPVRIR”, “soluble”. The value for “MSLNILDVMKIPAFENANLIAGKAGGEREVQHVNMMDAPDIVDFLHKNELLVTTAYHLKDHPHQLSELIRQMAKRGCAGLGIKTKRYLEDIPKEIIELADSYAFPIIELPEHIRLGDIVNATLSHILDMRSNEGHHHHHH” was “soluble”.

With “MTLNDKYPFTDEDQAIINSYKAVVDGVSALIGEHCEIVLHSLENIEHSAICIANGHNTNRQVGSPITDLALRSLRNMQSESVSKPYFTRAKGSVLMKSVTIAIRNKTQRIIGLLCININLDVPVSQFLQCFMLTEHTNETSSVNFANSVEDLVAQTIEKTIEEVNADRAVANNTKNRQIVLSLYEKGIFDIKDAINLVAERLDISRHTVYLYIRQIKQEQE”, the “soluble on expression in E. coli” value is listed as “not soluble”. The value for “MRADELPSKEEIEMHKDSCKYFSNDTEEEETEDEEENGEVAHAKAVAEEFGKSSKSKNVSSSMELDDEVAEGLKELDMDNYDEEDDGIEIFSSGRGDLYYKSNEMDPYLKRNDDHDDDSDDDPPILPTDLVIVCAMTDDKEANRLDVYVSEDTSHGSPNMYNHHYRIIPAIPLCTAWLDCPLKGGERGNFLAVGSDGTPTIEIWDLDAWFDMLPCVQLGGQNKEGNYKQGSHTRSVLGLAWNKEFRNILASASADKKVKVWDVATGTCKITMEHHTKEVQAVAWNHYAPEVLLSGSFDQTVVLKDGRQPSHSGFKWSVMSDVESLAWDPHSEHSFVVSLEDGTVKGFDVRQASISASESNPSFTINGHDEAATSVSYNISAPNLLATGSKDRTVKLWDLSNNEPSCIATHNPNAGGLFFIAFSPDNPFLLAMGGVMGELKLWDTLSDTNVSSRYGSREVRP” was “soluble”; that for “MIELKHVTFGYNKKQMVLQDINITIPDGENVGILGESGCGKSTLASLVLGLFKPVKGEIYLSDNAVLPIFQHPLTSFNPDWTIETSLKEALYYYRGLTDNTAQDQLLLQHLSTFELNAQLLTKLPSEVSGGQLQRFNVMRSLLAQPRVLICDEITSNLDVIAEQNVINILKAQTITNLNHFIVISHDLSVLQRLVNRIIVLKDGMIVDDFAIEELFNVDRHPYTKELVQAFSY” was “not soluble”; that for “MGSDKIHHHHHHITPSISSKADNLIPRTNLEISNGQVFNESQIRLRGWGLNASGIKAIDIYVDGTWKKTLVKGDGFGLSRPDVKQAFPEYPDADYSGYDYYMYLPDGNHTLRVWAIGNDNSKVYSEANITVDTSNSKGTQLVNYARKFIGVPYVWGGDTPNGFDCSGLVMYCYAHFGVNLPHYTGDQVKYGTVVTDLQPGDLLFFGSTSDPYHVAIYSGNGYMIEAPKTGENVHETPVRSYSIAKRIF” was “not soluble”. The value for “MGSDKIHHHHHHMKRRELLVLGGLSTIAAGMGRQWFQPVSAQAITPLPASDRPLDLRFIAVADTGTGARGQYDVAAAMERYRRANPYKLAVLAGDNIYNNGEIEKIQAVFERPYAPLLKSGVKFRAVLGNHDIRTNNGNDQVRYPGFNMTGRYYQFQEGPVAFFALDTNGNADWNKQLTWLDRALQASNAPWKVVFGHHPIYSSGFYGVNRTLLGRLVPLFKRHGVQLYISGHDHSYERTQPIDGTTYLIVGAGAGLRPVGRSSWTAQSASTLSFAGLEVYGNELRIQTFDKDSRLIDQGQIFA” was “not soluble”; that for “MSLPDKFKRVHVVVMDSVGIGEAPDAAKFGDFDVDTFGHIAKHVGGLKMPEMGKLGLSNIREIEGIKKAEKPLAYYTKMQEASNGKDTMTGHWEIMGLYIDTPFRVFPDGFPDDLINQIEEKTGRKVIGNKPASGTEIMAELGEEHVKTGALIVYTSADSVLQIAAHEDVVPLEELYEICEFCRKITLDDPYMLGRIIARPFVGEPGAFVRTPNRHDYALKPFKPTVMDALKDGGKDVIAIGKISDIFDGEGVTESIRTKSNMDGMDQFIAVLDKDFNGMSFLNLVDFDALFGHRRDPQGYADALVDFDGRLVEVMEKLTDDDLLIITADHGNDPTYTGTDHTREFVPLLVYSPRFKNGGSELELRKTFADLGATVADNFDVKMPEYGTSFLRDLKEGHHHHHH” was “not soluble”; that for “GPGSMPTRPLLVKYETPVLLSEVKHKKALKEKKRVAVGAQSGPQAEDVLYSIIPPREFEENGQQWVQYVSSIPATRMDVINLQERLDSLLLERNARETGICPVREELYSQVFDELIRQVTVNCAERGLLLLRVRDELRMTLDAYRSLYESSAAYGMRKALQAEQSKIEMESKIQALEREKEELKQQVEELEYRCESIIQQEKEKFAEAERKHNEEVAFFRRTYQTLTTNLQTLCNATKA” was “soluble”.

In the case of “MGSSHHHHHHGGTGENLYFQGGSGMEKAIRDRVEKWKKEHTIDGKDATNEHAYESLNELILDGKKLTSIKNEEKELLKNFKNLERLCLNQTGIQTLENIPSIATLNVLELTDNHLSSVEVLKYIVQNFPNIKTLEIGGNHFKNINDFETLKELKNLVRLGVQFNPFADNPNYRKELFEFLPNVKIIDCYNKEGMEVLSSDEEEEEEYEEDNTLKNFYEADFKDEDDEDEEFVPNDNEDDDEDDELDDDLEDEDMEDLDKEDLDKEDYDIDTKETEGVNKDEKSNKRKQDALDNTNDMDLKKTKLE”, the “soluble on expression in E. coli” value is “soluble”. The value for “MHSLGWDIWNAVQPKEFYKGFLRRSIRPDGRKLSEYRDITLRKGPLVTTVDGSANASIGRTVALIGIQPKVIEWKETKKGSARSIVGQHCSLQVEFPSVCHRDIRSGRTLEEALLVKESLENVLEQILERDSFCIVPDKFYWHLQITAYCLSLDGNVIETFLLALYGALLDLQLPVVRASTSGDLLTLDPNQPKVTLPMKKLEDWPWVVPIGLFWNGPSEYYAVLDLSEEEENNMSSIVWIWNSQRGDKLAISKQKVGPLSVNILQEVLQLVKAHIDEVILRLQHGK” was “not soluble”; that for “MGSDKIHHHHHHMNEMWLHRADLAESAINERHASRLWMLPRTNLAVVAWPPTAKERLFYRWHYWWQAHYLDCLIDAASRRTTKARKQRIRDTIVGIRLRNLGRLTKNNYYDDKSWLALALDRERRLNKRAKREYLRVLEGNIAAGQDDIQGVLPWRVGEHFFNVPTNGPAAIMLARNGEVEQARKLVDWIFDNLINDKGLVMDGLRMSMRGPEIVDPVYPYCQGVVIGACIEIAEALPFEESVQYLAHARAVIHAVAKEMATPEGVINAATGDGDGGLFKGILMRYLADAAVRLPEDGPANIATKKIAKRLVMASAESVWEHRLEVDGLPVFATDWCDDARLPHNYGVGGSALSDIVRVVRIDERDLSVQLSGWMLLEAAARVSLVD” was “not soluble”.
